± gives the uncertainty stated by the source.
Assay: protein stability index of a GFP-peptide fusion (yeast GPS) (PSI 1-4); higher = more stable; sorted into four equal gates, so the index is relative within each strain
Procedure, shortened: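 Tiled 17-residue yeast protein peptides were fused downstream of GFP in a plasmid that also expresses Cherry, and the pooled library was carried in yeast. Mid-log cultures in leucine-free medium were sorted into four equal gates by GFP/Cherry fluorescence ratio, and plasmids from each gate were PCR-amplified and Illumina-sequenced, with reads assigned to strains by barcodes. The protein stability index for each peptide was each gate's read frequency times its gate number, summed.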

Row | Sequence | protein stability index (doa10∆) | protein stability index (pdr5∆) | protein stability index (san1∆) | protein stability index (ubr1∆)
1 | LILQRLKDLNLTVSIKI [RGR1] | 1.76 ± 0.073 | 1.96 ± 0.071 | 2.65 ± 0.072 | 1.98 ± 0.052
2 | TFHDYDMVKLDINPPLV [RRP42] | 2.94 ± 0.088 | 2.73 ± 0.061 | 2.87 ± 0.096 | 3.15 ± 0.037
3 | DPGRYNKVCRIEAASTT [RPB8] | 2.41 ± 0.093 | 2.53 ± 0.099 | 2.48 ± 0.1 | 2.73 ± 0.082
4 | LFGNKPTTTTGGLFGNS [YGR119C/NUP57] | 2.94 ± 0.1 | 2.79 ± 0.13 | 2.85 ± 0.18 | 3.19 ± 0.055
5 | TTDDEEEPIKKLCYVLG [RET1] | 3.42 ± 0.27 | 3.29 ± 0.18 | – | 3.46 ± 0.17
6 | NNDDDDNSVEQGRRLGE [MCD1] | – | 3.46 ± 0.21 | – | 3.37 ± 0.12
7 | SVLLHHKTMSIVGVLQD [RPT2] | 1.34 ± 0.074 | 1.51 ± 0.053 | 1.37 ± 0.096 | 1.57 ± 0.042
8 | AIAGNSTTNSDVSLLLQ [RGR1] | 3.09 ± 0.13 | 2.19 ± 0.082 | 3.03 ± 0.056 | 3.13 ± 0.071
9 | DQPQSSEAKRTKFSNPA [BRR2] | 3.1 ± 0.093 | 2.65 ± 0.068 | 3.24 ± 0.086 | 3.13 ± 0.084
10 | MSAAPVQDKDTLSNAER [GAL11] | 3.6 ± 0.15 | 3.07 ± 0.16 | 3.34 ± 0.073 | 3.04 ± 0.079
11 | LIIRNDSLSGAVIAAIM [RPT3] | 3.17 ± 0.11 | 3.09 ± 0.11 | 2.94 ± 0.21 | 3.12 ± 0.098
12 | LGVKNLGLCCLLDVKLA [YCG1] | 1.54 ± 0.05 | 1.58 ± 0.045 | 1.82 ± 0.063 | 1.81 ± 0.038
13 | DIPTIADEHFWADNYER [BRN1] | 3.14 ± 0.2 | 3.18 ± 0.1 | 3.34 ± 0.069 | 3.22 ± 0.04
14 | DDYEDQDDDDYVDTATA [IRR1] | 3.14 ± 0.08 | 3.47 ± 0.071 | 2.93 ± 0.093 | 3.22 ± 0.049
15 | SPQLTAIIGLKSGTSHD [SNF12] | 1.52 ± 0.067 | 1.82 ± 0.074 | 1.84 ± 0.12 | 1.66 ± 0.065
16 | DSIPRDVAYLLKSESAT [YGL172W/NUP49] | 2.74 ± 0.092 | 3.11 ± 0.079 | 2.91 ± 0.05 | 3.19 ± 0.074
17 | TSLLNKVLKSGSGVDSS [RRP42] | 2.87 ± 0.12 | 2.88 ± 0.077 | 2.6 ± 0.13 | 3.21 ± 0.12
18 | VLAQYHEAKERIRQKEV [SNF6] | – | – | – | 3.4 ± 0.18
19 | NGCIFTLNPKTGHLFLK [PRP8] | 3.24 ± 0.064 | 2.92 ± 0.082 | 2.98 ± 0.083 | 2.97 ± 0.083
20 | DSLSVPKVSAGDSGISP [SIR4] | 3.24 ± 0.12 | 3.24 ± 0.11 | 3.02 ± 0.084 | 3.18 ± 0.058
21 | NLMILNTKVPVDIVNQW [YML103C/NUP188] | 1.68 ± 0.071 | 2.12 ± 0.084 | 1.84 ± 0.13 | 2.08 ± 0.055
22 | QDLPKINDKRANLMLVM [SRB4] | 1.91 ± 0.073 | 1.88 ± 0.068 | 1.83 ± 0.14 | 1.73 ± 0.063
23 | MDNKTPVTLAKVIKVLG [RPS28A] | 1.16 ± 0.12 | 1.77 ± 0.22 | 1.16 ± 0.27 | 2.55 ± 0.27
24 | GTSKYLINGHRAPQQSV [SMC2] | 2.13 ± 0.054 | 2.36 ± 0.047 | 2.27 ± 0.076 | 2.22 ± 0.052
25 | MRELGLIQSTEFPSITS [YOR098C/NUP1] | 3.12 ± 0.1 | 3.29 ± 0.092 | 2.21 ± 0.12 | 3.17 ± 0.078
26 | EHSQVEQTCVKLLDSGC [SRP72] | 3.15 ± 0.068 | 3.38 ± 0.083 | 3.11 ± 0.085 | 3.34 ± 0.063
27 | LGNGVACDPSEIEPILM [RGR1] | 2.06 ± 0.075 | 2.19 ± 0.067 | 3.34 ± 0.071 | 2.91 ± 0.063

Row | Sequence | protein stability index (doa10∆) | protein stability index (pdr5∆) | protein stability index (san1∆) | protein stability index (ubr1∆)
28 | DLRLIKVPQQAAGKRIS [SMC1] | 1.36 ± 0.099 | 1.31 ± 0.2 | 1.1 ± 0.13 | 1.15 ± 0.07
29 | IPKLKPAPINSLSRDFV [SNU114] | 2.92 ± 0.052 | 2.8 ± 0.061 | 2.68 ± 0.039 | 2.75 ± 0.047
30 | TDEHLIFNSGKMIILDK [ISW2] | 3 ± 0.24 | 2.74 ± 0.074 | 2.35 ± 0.1 | 2.59 ± 0.058
31 | KQLQQPKSSPLKKNNYN [SIR4] | 3.03 ± 0.089 | 2.98 ± 0.068 | 3.1 ± 0.039 | 3.07 ± 0.039
32 | YLKHNSIAEEIPIAIVL [RET1] | 2.65 ± 0.052 | 2.18 ± 0.047 | 1.73 ± 0.085 | 2.16 ± 0.05
33 | NVVGKLISIISSVIQNY [YML103C/NUP188] | 1.79 ± 0.073 | 1.44 ± 0.078 | 1.36 ± 0.13 | 1.51 ± 0.089
34 | NSKMPTRFPPAVFYTPK [PRP8] | 2.76 ± 0.056 | 3.09 ± 0.068 | 2.94 ± 0.054 | 2.93 ± 0.061
35 | KTLKRMIKESSTANPNI [POP1] | 2.54 ± 0.1 | 2.76 ± 0.091 | 2.28 ± 0.092 | 2.67 ± 0.054
36 | NIKFLSKLEGTINKAVQ [ESC2] | 2.86 ± 0.11 | 3.35 ± 0.14 | 2.72 ± 0.1 | 2.91 ± 0.1
37 | VKVSAAAGKANKQFAKF [RPS11A] | 2.64 ± 0.081 | 2.88 ± 0.074 | 2.85 ± 0.065 | 2.93 ± 0.044
38 | KLDSKKILPTDIQLKNL [SRP68] | 2.74 ± 0.1 | 2.78 ± 0.078 | 2.79 ± 0.061 | 2.69 ± 0.059
39 | KLDASKKQQAALTNELN [YIL149C/MLP2] | 2.79 ± 0.069 | 2.99 ± 0.075 | 2.68 ± 0.08 | 2.17 ± 0.062
40 | ERSYPSEFANQNQGGAQ [ROX3] | 2.98 ± 0.083 | 3.07 ± 0.092 | 2.96 ± 0.066 | 3.17 ± 0.061
41 | GDVGKNHITEFPSIPLP [RPC31] | 3.21 ± 0.087 | 3.23 ± 0.087 | 3.31 ± 0.079 | 3.22 ± 0.093
42 | FSIFNYFKMFPASKHDK [RPC34] | 3.28 ± 0.19 | 1.34 ± 0.12 | – | 2.44 ± 0.2
43 | IGIDEGSDEAYVKDARK [RPC40] | 3.48 ± 0.074 | 3.38 ± 0.076 | 3.19 ± 0.051 | 3.5 ± 0.054
44 | LMQNMMNMFGGGMGGGM [SRP54] | 1.85 ± 0.16 | 2.53 ± 0.063 | 2.47 ± 0.17 | 2.27 ± 0.081
45 | FDDSSRIVNHKTKLWGF [LIN1] | 3.09 ± 0.071 | 2.98 ± 0.08 | 3.1 ± 0.069 | 2.94 ± 0.055
46 | GGKAGSAAKASQSRSAK [HTA1] | 3.17 ± 0.072 | 3.14 ± 0.071 | 2.84 ± 0.069 | 3.19 ± 0.048
47 | VEEAHDFNMKLAINAKT [RPB2] | 3.09 ± 0.072 | 3.03 ± 0.085 | 3.08 ± 0.064 | 3.08 ± 0.05
48 | RGYWGTNLGQPHSLATK [RPS2] | 2.68 ± 0.23 | 3.18 ± 0.16 | 3.04 ± 0.1 | 2.85 ± 0.093
49 | EHRRYDDQLKQRRQNIR [RPT4] | 2.62 ± 0.18 | 2.46 ± 0.18 | 2.29 ± 0.14 | 2.69 ± 0.12
50 | NQIQRQQQQQFRHHVQI [SNF5] | 1.86 ± 0.04 | 2.08 ± 0.045 | 1.88 ± 0.085 | 1.91 ± 0.03
51 | LSEDVNLETLVTTKDDL [RPT2] | 3.01 ± 0.13 | 2.87 ± 0.17 | 2.57 ± 0.15 | 2.89 ± 0.096
52 | DGRVNRFYELEESLTVL [YJR042W/NUP85] | 2.28 ± 0.12 | 2.21 ± 0.13 | – | 1.99 ± 0.1
53 | VFSHAQTAVTCESCSTI [RPS27A] | 1.47 ± 0.091 | 1.2 ± 0.076 | 1.16 ± 0.13 | 1.51 ± 0.076

Source: the supplement of paper PMC9732359
